{"source": "the RNAGym collection of RNA variant scans (doi:10.1073/pnas.2313332121)", "parents": {"B1": {"name": "TPR 5TU (parent)", "chain": "GGAUCUUCUCGAUCUAACAAAAAAGACAAAUCUGCCACAAAGCUUGAGAGCAUCUUCGGAUGCAGAGGCGGCAGCCUUCGGUGGCGCGAUAGCGCCAACGUUCUCAACUAUGACACGCAAAACGCGUGCUCCGUUGAAUGGAGUUUAUCAUG"}}, "note": "Variants at the floor of the assay were thinned out."}
{"variants_of": "B1", "experiment": "polymerase ribozyme fitness, log enrichment relative to wild type (log ratio); higher = more active; in vitro selection for triplet polymerase activity", "summary_of_the_method": "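Streptavidin-bead capture of gel-excised extended constructs, followed by RT-PCR, closed a single triplicate in vitro selection round. That round began by annealing PCR-built, transcribed mutant libraries of each subunit of a heterodimeric triplet polymerase ribozyme with a biotinylated primer, the partner subunit and triplets, then incubating them frozen at −7 °C. After Illumina sequencing of inputs and outputs, genotypes needed ≥10 input reads and ≥1 read per output. Fitness is the base-2 logarithm of genotype enrichment over wild-type enrichment, using inverse-variance-weighted replicate averages.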"}
{"variant": "GGAUCUUCUCGAUCUAACAAAAAAGACAAAUCUGCCACAAACCUUGAGGGCAUGUUCGGAUGCAGAGGCGGCAGCCUUCGGUCGUGCGAUAGCGCAAACGUUCUCAACUAUGACACGCAAAACGCGUGCUCCGUUGAAUGGAGUUUAUCAUG", "note": "[G42C A49G C54G G83C C85U C96A]", "polymerase ribozyme fitness (log ratio)": "≤ -4.2"}
{"variant": "GGAUCUUCUCGAUCUAACAAAAAAGACAAAUCUGCCACAAAACUUGAGAGCAUCAUCGGAUGCAGAGGCGGCAGCCUUCGGUGGCGCGAUAGCGCAAACGUUCUCAACUAUGACACGCAAAACGCGUGCUCCGUUGAAUGGAGUUUAUCAUG", "note": "[G42A U55A C96A]", "polymerase ribozyme fitness (log ratio)": -4.06}
{"variant": "GGAUCUUCUCGAUCUAACAAAAAAGACAAAUCUGCCACAAAACUUGAGAGCAUCUUCGGAUGCAGAGGCGGCAGCCUUCGGUGACGCGAUAGCGCCAACGUUCUCAACUAUGACACGCAAAACGCGUGCUCCGUUGAAUGGAGUUUAUCAUG", "note": "[G42A G84A]", "polymerase ribozyme fitness (log ratio)": -3.95}
{"variant": "GGAUCUUCUCGAUCUAACAAAAAAGACAAAUCUGCCACAAACCUUGAGGGCAUCUUCGGAUGCAGAGGCGGCAGCCUUCGGUGGCGCGAUAGCGCCAACGUUCUCAACUAUGACACGCAAAACGCGUGCUCCGUUGACUGGAGUUUAUCAUG", "note": "[G42C A49G A138C]", "polymerase ribozyme fitness (log ratio)": "≤ -4.2"}
{"variant": "GGAUCUUCUCGAUCUAACAAAAAAGACAAAUCUGCCACAAACCUUGCGAGCAUCUUUGGAUGCAGAGGCGGCAGCCUUCGCUGGCGCGAUAGCGACAACGUUCUCAACUAUGACACGCAAAACGCGUGCUCCGUUGAAUGGAGUUUAUCAUG", "note": "[G42C A47C C57U G81C C95A]", "polymerase ribozyme fitness (log ratio)": "≤ -4.2"}
{"variant": "GGAUCUUCUCGAUCUAACAAAAAAGACAAAUCUGCCACAAAACUUGAGAGCAUCUUCGGAUGCAGAGGCGGCAGCCUUCGGUGGCGCGAUAGCGCCAACGUUCUCAACUAUGACACGCAAAACGCGUGCUCCGUUGAAUGGAGUUUACCAUG", "note": "[G42A U148C]", "polymerase ribozyme fitness (log ratio)": "≤ -4.2"}
{"variant": "GGAUCUUCUCGAUCUAACAAAAAAGACAAAUCUGCCACAAAACUUGAGAGCAUCUUCGGAUGCAGAGGCGGCAGCCUGCGGUGGCGCGAUAGCGCCAACGUUCUCAACUAUGACAAGCAAAACGGGUGCUCCGUUGAAUGGAGUUUAUCAUG", "note": "[G42A U78G C116A C125G]", "polymerase ribozyme fitness (log ratio)": "≤ -4.2"}
{"variant": "GGAUCUUCUCGAUCUAACAAAAAAGACAAAUCUGCCACAAACCUUGGGAGCAUCUUAGGAUGCAGAGGCGGCAGGCUUCGGUGGCGCGAUAGCGCCAACGUUCUCAACUAUGACACGCAAAACGGGUGCUCCGUUGAAUGGAGUUUAUCAUG", "note": "[G42C A47G C57A C75G C125G]", "polymerase ribozyme fitness (log ratio)": "≤ -4.2"}
{"variant": "GGAUCUUCUCGAUCUAACAAAAAAGACAAAUCUGCCACAAACCUUGAGAGCAUCUUCGGGUGCAGAGGCGGCAGGCUUCGGUGGCGCGAUAGCGCCAACGUUCUUAACUAUGACACGCAAAGCGCGUGCUCCGUUGAAUGGAGUUUAUCAUG", "note": "[G42C A60G C75G C105U A122G]", "polymerase ribozyme fitness (log ratio)": -4.18}
{"variant": "GGAUCUUCUCGAUCUAACAAAAAAGACAAAUCUGCCACAAAACUUGAGAGCAUCUUCGGAUGCAGAGCCGGCAGCCUUCGGUGGCGCGAUAGCUCCAACGUUCUCAACUAUGACACGCAAAACGCGUGCUCCGUUGAAUGGAGUUUAUCAUG", "note": "[G42A G68C G94U]", "polymerase ribozyme fitness (log ratio)": "≤ -4.2"}
{"variant": "GGAUCUUCUCGAUCUAACAAAAAAGACAAAUCUGCCACAAAACUUGAGAGCAUCUUCGGAUGCAGAGGCGGCACCCUUCGGUCGCGCGAUAGCGCCAACGUUCUCAUCUAUCACACGCAAAACGCGUGCUCCGUUGAAUGGAGUUUAUCAUG", "note": "[G42A G74C G83C A107U G112C]", "polymerase ribozyme fitness (log ratio)": "≤ -4.2"}
{"variant": "GGAUCUUCUCGAUCUAACAAAAAAGACAAAUCUGCCACAAACCUUGAGAGCAUCUUCGGAUGCAGAGGCGGCAGCCUUCGGUGGCGCGAUAGCGCUAAUGUUCUCAACUAUGACACGCAAAACGCGUGCUCCGUUGAAUGGAGUUUAUCAUG", "note": "[G42C C96U C99U]", "polymerase ribozyme fitness (log ratio)": "≤ -4.2"}
{"variant": "GGAUCUUCUCGAUCUAACAAAAAAGACAAAUCUGCCACAAAACUUGAGAGCAACUUCGGAUGCAGAGGCGGCAGCCUUCGGUGGCGCGAUAGCGCCAACGUUCUCAACUAUGACACGCAAAACGCGUGCUCCGUUGAAUGGAGUUUAUCAUG", "note": "[G42A U53A]", "polymerase ribozyme fitness (log ratio)": "≤ -4.2"}
{"variant": "GGAUCUUCUCGAUCUAACAAAAAAGACAAAUCUGCCACAAACCUUGAGAGCAUCUUCGGUUGCAGACGCGGCAGCCUUCGGUGGCGCGAUAGCGCCAACGUUCUCAACUAUGACACGCAAAACGCGUUCUCCGUUGAUUGGAGUUUAUCAUG", "note": "[G42C A60U G67C G128U A138U]", "polymerase ribozyme fitness (log ratio)": "≤ -4.2"}
{"variant": "GGAUCUUCUCGAUCUAACAAAAAAGACAAAUCUGCCACAAAACUUGAGAGCAUCUUCGGAAGCAGAGGCGGCAGCCUUCGGUGGCACGAUAGCGCCAACGUUCUCAACUAUGACACGCAAAACGCGUGCUCCGUUCAAUGGAGUUUAUCAUG", "note": "[G42A U61A G86A G136C]", "polymerase ribozyme fitness (log ratio)": "≤ -4.2"}
{"variant": "GGAUCUUCUCGAUCUAACAAAAAAGACAAAUCUGCCACAAAACUUGAGAGCAUCUUCGGAUCCAGAGGCGGCAGCCUUCGGUGGCGCGAUAGCGCCAACGUUCUCAACUAUGACAGGCAAAACGUGUGCUCCGUUGAAUGGUGUUUAUCCUG", "note": "[G42A G62C C116G C125U A142U A150C]", "polymerase ribozyme fitness (log ratio)": "≤ -4.2"}
{"variant": "GGAUCUUCUCGAUCUAACAAAAAAGACAAAUCUGCCACAAAACUUGAGAGCAUCUACGGAUGCAGAGGCGGCAGCCUUCGGUGGCGCGAUAGUGCCAACGUUCUCAACUAUGACACGCAAAACGCGUGCUCCGUUGAAUGGAGUUUAUCAUG", "note": "[G42A U56A C93U]", "polymerase ribozyme fitness (log ratio)": "≤ -4.2"}
{"variant": "GGAUCUUCUCGAUCUAACAAAAAAGACAAAUCUGCCACAAACCUUGAGAGCAUCUUCGGUUGCAGAGGCGGCAGCCUUCGGUGGCGCGAUAUCGCCAACGUUCUCAACUAUGACACGCUAAACGAGUGCUCCGUUGAAUGGAGUUUAUCAUG", "note": "[G42C A60U G92U A119U C125A]", "polymerase ribozyme fitness (log ratio)": "≤ -4.2"}
{"variant": "GGAUCUUCUCGAUCUAACAAAAAAGACAAAUCUGCCACAAACCUUGAGAGCAUCUUCGGAUGCAGAGGCGGUAGCCUUCGGUGGCGCGAUAGCGCCAACGUUCUCAACUAUGACACGCAAAACGCGUGCUCCGUUGAAUGGAGUUUAUCAUG", "note": "[G42C C72U]", "polymerase ribozyme fitness (log ratio)": "≤ -4.2"}
